Assay results from PMC10807135 (ACS chemical biology, 2023).
Where a chain is given by its changes, count along the chain named. Names may count otherwise. Like-named read-outs stand apart in the source and are kept apart here.

Legend:
PltF Q438R D263K A230R = target: T1, PltF Q438R D263K A230R (Pseudomonas fluorescens, UniProt Q4KCY5 1-498, Q438R | D263K | A230R); assay: NMR titration
T1 sequence: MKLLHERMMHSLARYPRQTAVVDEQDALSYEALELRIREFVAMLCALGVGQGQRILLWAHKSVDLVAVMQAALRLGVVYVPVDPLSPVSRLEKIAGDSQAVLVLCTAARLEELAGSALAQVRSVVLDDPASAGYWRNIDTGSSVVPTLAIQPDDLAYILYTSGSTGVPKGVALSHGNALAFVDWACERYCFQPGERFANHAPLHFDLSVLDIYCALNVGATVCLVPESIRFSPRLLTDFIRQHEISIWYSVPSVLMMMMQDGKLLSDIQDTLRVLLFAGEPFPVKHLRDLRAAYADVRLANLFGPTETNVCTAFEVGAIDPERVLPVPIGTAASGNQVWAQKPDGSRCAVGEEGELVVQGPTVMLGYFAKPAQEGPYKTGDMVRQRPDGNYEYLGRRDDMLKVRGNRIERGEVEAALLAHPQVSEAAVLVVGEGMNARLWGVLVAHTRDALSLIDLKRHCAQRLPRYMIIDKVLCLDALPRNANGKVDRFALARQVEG

[1] = target: holo-AcpP (E. coli acyl carrier protein AcpP with phosphopantetheine) (Escherichia coli) (UniProt P0A6A8)
[2] = target: holo-AcpP (E. coli acyl carrier protein AcpP with phosphopantetheine) (Escherichia coli) (UniProt P0A6A8); remark: listed apart in the source

B1: desulfo-AcpP (15N-labelled E. coli acyl carrier protein AcpP loaded with a desulfo-PPant mimic) (natural protein, Escherichia coli)
chain: STIEERVKKIIGEQLGVKQEEVTNNASFVEDLGADSLDTVELVMALEEEFDTEIPDEEAEKITTVQAAIDYINGHQA
modifications: desulfo-phosphopantetheine (desulfo-PPant mimic) loaded onto apo-AcpP; uniform 15N labelling
- binding result (PltF Q438R D263K A230R): binds

B2: PltF Q438R (enzyme)
chain: T1 sequence with R230A, K263D
- turnover rate of AcpP prolylation (time course, HPLC) [1]: 0.264 AcpP h^-1

B3: PltF Q438R K472R D263N (enzyme)
chain: T1 sequence with R230A, K263N, K472R
- turnover rate of AcpP prolylation (time course, HPLC) [2]: 1.98 AcpP h^-1
